From US20110008345A1 (GlaxoSmithKline, published 2011)
Where a chain is given by its changes, count along the chain named. In names and notes the source's numbering stands. Several values for one entry are separate records, joined by “and”; a condition that tells them apart may be missing. Equal entries are not always repeated. Where two headings read alike, the source gives them in different places.

Legend:
recombinant human HER2 = target: T1, recombinant human HER2 (human, UniProt P04626 23-652, limits assumed); test: ELISA
T1 construct: bought

[1] = target: T2, recombinant E. coli-expressed human IL-4 (human, UniProt P05112 25-153); test: cell-based or functional assay
T2 sequence: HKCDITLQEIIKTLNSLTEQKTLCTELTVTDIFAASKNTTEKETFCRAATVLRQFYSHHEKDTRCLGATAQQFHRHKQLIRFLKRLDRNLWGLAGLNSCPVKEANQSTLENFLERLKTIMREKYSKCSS

[2] = target: T2, recombinant E. coli-expressed human IL-4; test: ELISA, IL-4 binding to IL4Ralpha-Fc
[3] = target: T2, recombinant E. coli-expressed human IL-4; test: SPR exp 2
[4] = target: T3, recombinant E. coli-expressed human IL-13 (human, UniProt P35225 35-146); test: SPR exp 2
T3 construct: made and purified at GSK; also called Interleukin-13; rhIL-13

[5] = target: T2, recombinant E. coli-expressed human IL-4; test: SPR, purified
[6] = target: T3, recombinant E. coli-expressed human …; test: SPR, purified
[7] = target: T2, recombinant E. coli-expressed human IL-4; test: SPR stoichiometry
[8] = target: T3, recombinant E. coli-expressed human …; test: SPR stoichiometry
[9] = target: T3, recombinant E. coli-expressed human …; test: cell-based or functional assay
[10] = target: T4, recombinant E. coli-expressed cynomolgus IL-13 (cynomolgus, UniProt Q0PW92 21-132); test: cell-based or functional assay
[11] = target: T2, recombinant E. coli-expressed human IL-4; test: SPR
[12] = target: T3, recombinant E. coli-expressed human …; test: SPR
[13] = target: T4, recombinant E. coli-expressed …; test: SPR
[14] = target: T3, recombinant E. coli-expressed human …; test: SPR exp 1
[15] = target: T2, recombinant E. coli-expressed human IL-4; test: SPR exp 1
[16] = target: T4, recombinant E. coli-expressed …; test: SPR; remark: listed apart in the source
[17] = target: T5, recombinant E. coli-expressed cynomolgus IL-4 (cynomolgus, UniProt P79339 25-153); test: SPR
T5 construct: also called cyno IL-4
T5 sequence (looked up): T2 sequence with E26K, V29I, F33L

[18] = target: T3, recombinant E. coli-expressed human …; test: cell-based or functional assay; remark: listed apart in the source
[19] = target: T4, recombinant E. coli-expressed …; test: cell-based or functional assay; remark: listed apart in the source
[20] = target: T3, recombinant E. coli-expressed human …; test: SPR; remark: listed apart in the source
[21] = target: T3, recombinant E. coli-expressed human …; test: cell-based or functional assay; remark: listed apart in the source
[22] = target: T4, recombinant E. coli-expressed …; test: cell-based or functional assay; remark: listed apart in the source
[23] = target: T3, recombinant E. coli-expressed human …; test: ELISA, IL-13 binding to IL13Ralpha2/Fc

B1: BPC1805 (bispecific antibody, human IgG1, kappa)
heavy: not shown
light: DIVMTQSPLSLPVTPGEPASISCRSSQSIVQSNGDTYLEWYLQKPGQSPQLLIYRVSNRFSGVPDRFSGSGSGTDFTLKISRVEAEDVGVYYCFQGSHVPYTFGQGTKLEIKRTVAAPSVFIFPPSDEQLKSGTASVVCLLNNFYPREAKVQWKVDNALQSGNSQESVTEQDSKDSTYSLSSTLTLSKADYEKHKVYACEVTHQGLSSPVTKSFNRGEC
notes: anti-HER2 Affibody fusion; also called antiIGF1R Heavy Chain-GS-AFFI
- binding result (recombinant human HER2): binds

B2: BPC1808 (bispecific antibody, human IgG1, kappa)
heavy: not shown
light: B1 light
notes: anti-HER2 DARPin fusion
- binding result (recombinant human HER2): binds

B3: BPC1806 (bispecific antibody, human IgG1, kappa)
heavy: not shown
light: B1 light
notes: anti-HER2 Affibody fusion
- binding result (recombinant human HER2): binds

B4: BPC1807 (bispecific antibody, human IgG1, kappa)
heavy: not shown
light: B1 light
notes: anti-HER2 DARPin fusion; also called antiIGF1R Heavy Chain-GS-DRPN
- binding result (recombinant human HER2): binds

B5: DOM9-112-210 domain antibody (other)
VH: EVQLLESGGGLVQPGGSLRLSCAASGFTFRNFGMGWVRQAPGKGLEWVSWIISSGTETYYADSVKGRFTISRDNSKNTLYLQMNSLRAEDTAVYYCAKSLGRFDYWGQGTLVTVSS
notes: anti-IL-4 dAb
- Mean IC50 (whole blood phospho-STAT6) [1]: 3.51 nM
- IC50 [2]: 36.8 nM

B6: PascoL-G4S-474 (bispecific antibody, human IgG1, kappa)
heavy: not shown
light: DIVLTQSPSSLSASVGDRVTITCKASQSVDYDGDSYMNWYQQKPGKAPKLLIYAASNLESGIPSRFSGSGSGTDFTFTISSLQPEDIATYYCQQSNEDPPTFGQGTKVEIKRTVAAPSVFIFPPSDEQLKSGTASVVCLLNNFYPREAKVQWKVDNALQSGNSQESVTEQDSKDSTYSLSSTLTLSKADYEKHKVYACEVTHQGLSSPVTKSFNRGECGGGGSGVQLLESGGGLVQPGGSLRLSCAASGFTFAWYDMGWVRQAPGKGLEWVSSIDWHGEVTYYADSVKGRFTISRDNSKNTLYLQMNSLRAEDTAVYYCATAEDEPGYDYWGQGTLVTVSS
- Kd [3]: 0.063 nM and 0.052 nM
- koff [3]: 0.000135 s⁻¹ and 0.000111 s⁻¹
- kon [3]: 2.14e+06 M⁻¹ s⁻¹ and 2.13e+06 M⁻¹ s⁻¹
- Kd [4]: 0.756 nM and 0.621 nM
- koff [4]: 0.000425 s⁻¹ and 0.000347 s⁻¹
- kon [4]: 563000 M⁻¹ s⁻¹ and 559000 M⁻¹ s⁻¹
- Kd [5]: 0.028 nM
- Kd [6]: 1.2 nM
- Stoichiometry [7]: 1.8
- Stoichiometry [8]: 1.8

B7: PascoH-TVAAPS-567 (bispecific antibody, human IgG1, kappa)
heavy: not shown
light: DIVLTQSPSSLSASVGDRVTITCKASQSVDYDGDSYMNWYQQKPGKAPKLLIYAASNLESGIPSRFSGSGSGTDFTFTISSLQPEDIATYYCQQSNEDPPTFGQGTKVEIKRTVAAPSVFIFPPSDEQLKSGTASVVCLLNNFYPREAKVQWKVDNALQSGNSQESVTEQDSKDSTYSLSSTLTLSKADYEKHKVYACEVTHQGLSSPVTKSFNRGEC
- Mean ND50 (TF-1) [9]: 2.06 nM
- Mean ND50 (TF-1) [10]: 38.2 nM
- binding result [11]: binds
- Kd [12]: 0.038 nM
- koff [12]: 1.7e-05 s⁻¹
- kon [12]: 446000 M⁻¹ s⁻¹
- Kd [13]: 8.8 nM
- koff [13]: 0.00522 s⁻¹
- kon [13]: 592000 M⁻¹ s⁻¹

B8: PascoH-474 (bispecific antibody, human IgG1, kappa)
heavy: not shown
light: B7 light
notes: also called BPC1000
- Kd [14]: 0.84 nM
- koff [14]: 0.00031 s⁻¹
- kon [14]: 360000 M⁻¹ s⁻¹
- Kd [5]: 0.037 nM
- Kd [6]: 0.71 nM
- Stoichiometry [7]: 1.8
- Stoichiometry [8]: 1.9
- Kd [15]: 0.02 nM
- koff [15]: 9.4e-05 s⁻¹
- kon [15]: 4.8e+06 M⁻¹ s⁻¹
- Kd [16]: 18.6 nM
- koff [16]: 0.0109 s⁻¹
- kon [16]: 586000 M⁻¹ s⁻¹
- Kd [17]: 0.0439 nM
- koff [17]: 8.14e-05 s⁻¹
- kon [17]: 1.85e+06 M⁻¹ s⁻¹

B9: PascoH-G4S-474 (bispecific antibody, human IgG1, kappa)
heavy: not shown
light: B7 light
- Kd [14]: 0.67 nM
- koff [14]: 0.00026 s⁻¹
- kon [14]: 390000 M⁻¹ s⁻¹
- Kd [5]: 0.036 nM
- Kd [6]: 0.58 nM
- Stoichiometry [7]: 1.8
- Stoichiometry [8]: 1.9
- Kd [15]: 0.02 nM
- koff [15]: 8.6e-05 s⁻¹
- kon [15]: 5.1e+06 M⁻¹ s⁻¹

B10: PascoH-GS-ASTKGPT-474 2nd GS removed (bispecific antibody, human IgG1, kappa)
heavy: not shown
light: B7 light
- Mean ND50 (TF-1) [18]: 1.37 nM
- Mean ND50 (TF-1) [19]: 21.5 nM
- Kd [16]: 23.8 nM
- koff [16]: 0.0114 s⁻¹
- kon [16]: 479000 M⁻¹ s⁻¹
- Kd [17]: 0.029 nM
- koff [17]: 5.3e-05 s⁻¹
- kon [17]: 1.83e+06 M⁻¹ s⁻¹

B11: PascoH-TVAAPS-546 (bispecific antibody, human IgG1, kappa)
heavy: not shown
light: B7 light
- Mean ND50 (TF-1) [9]: 1.52 nM
- Mean ND50 (TF-1) [10]: 33.9 nM
- Kd [11]: 0.00482 nM
- koff [11]: 2.37e-05 s⁻¹
- kon [11]: 4.92e+06 M⁻¹ s⁻¹
- Kd [12]: 0.747 nM
- koff [12]: 0.000169 s⁻¹
- kon [12]: 226000 M⁻¹ s⁻¹
- Kd [13]: 12.5 nM
- koff [13]: 0.0209 s⁻¹
- kon [13]: 1.67e+06 M⁻¹ s⁻¹

B12: BPC1609 (bispecific antibody, human IgG1, kappa)
heavy: not shown
light: DIVMTQSPLSLPVTPGEPASISCRSSQNIVHINGNTYLEWYLQKPGQSPRLLIYKISDRFSGVPDRFSGSGSGTDFTLKISRVEADDVGIYYCFQGSHVPWTFGQGTKLEIKRTVAAPSVFIFPPSDEQLKSGTASVVCLLNNFYPREAKVQWKVDNALQSGNSQESVTEQDSKDSTYSLSSTLTLSKADYEKHKVYACEVTHQGLSSPVTKSFNRGEC
- Kd [20]: 1.01 nM

B13: BPC1612 (bispecific antibody, human IgG1, kappa)
heavy: not shown
light: B12 light
- Kd [20]: 0.565 nM

B14: BPC1615 (bispecific antibody, human IgG1, kappa)
heavy: not shown
light: EIVLTQSPATLSLSPGERATLSCRASQNISDYLHWYQQKPGQAPRLLIYYASQSISGIPARFSGSGSGTDFTLTISSLEPEDFAVYYCQNGHSFPLTFGGGTKVEIKRTVAAPSVFIFPPSDEQLKSGTASVVCLLNNFYPREAKVQWKVDNALQSGNSQESVTEQDSKDSTYSLSSTLTLSKADYEKHKVYACEVTHQGLSSPVTKSFNRGEC
notes: also called 656H TVAAPS-210 & 656kappa
- Kd [20]: 0.085 nM

B15: DOM10-53-616 domain antibody (other)
VH: GVQLLESGGGLVQPGGSLRLSCAASGFVFPWYDMGWVRQAPGKGLEWVSSIDWHGKITYYADSVKGRFTISRDNSKNTLYLQMNSLRAEDTAVYYCATAEDEPGYDYWGQGTLVTVSS
notes: anti-IL-13 dAb
- Mean ND50 (TF-1) [9]: 0.536 nM
- Mean ND50 (TF-1) [10]: 3.57 nM
- Mean ND50 (TF-1) [21]: 0.416 nM
- Mean ND50 (TF-1) [22]: 4.81 nM
- IC50 [23]: 5.76 nM
